Laboratory results published in patent US20260092267.

Tested on: H3K4 histone substrate (histone H3)

Substance: SETD7-dCas9 protein (purified from pET-SETD7-dCas9-NLS-6×His)
- in vitro H3K4 methylation activity: the SETD7-dCas9 protein was confirmed to have H3K4 methylation activity with H3K4 histone substrate through in vitro analysis
